# Experimental data as given in patent US20140087401.
# System: purified spectrin
substance,measurement,value
calpain (added in the in-tube reaction),"spectrin cleavage, gel stained with Coomassie's blue",Purified spectrins undergo calpain-mediated dynamic cleavage in a test tube due to ambient PAV impact
